# According to the RNAGym collection of RNA variant scans (doi:10.7554/elife.90254):
# B1: LINE1-full (parent)
# chain: UACGUAGGUGGUUUUCCCCUGAUAGUGCUAAGGGGGCCUGGAAGUUUGGACUGGGCAGAGCUCAACACAGCGUGGCAAAGUGGCUGUGGCUAGACUGCCUCUCUGGAUUCCUCGUCACUCAGCAGGGCAUCUCUGAGAGAAAUGCC
# Variants of: B1
# Experiment: self-cleavage, relative activity (ratio to wild type); higher = more cleavage; in vitro, sequencing; the parent is a self-cleaving ribozyme
row,Variant,self-cleavage
1,G7A G97A,0.1
2,G35U U52A,0.51
3,U9A A136U,0.81
4,U13C A138G,1.6
5,A107G U112A,1.45
6,G48A U91C,0.09
7,G8C U45C,2.04
8,C63U U100G,0.35
9,C18U A94G,0.32
10,U14A G55U,0.28
11,A59U U62G,0.04
12,C99U A129G,0.89
13,A57G U96C,1.37
14,U87C U91G,0.08
15,A6U A22G,0.87
16,A57C G97U,0.04
17,A31C A141G,1.43
18,U14C G35C,1.46
19,U47C G144A,1.44
20,U46G A79G,1.23
21,U47A A77U,1.46
22,G75A A124G,0.72
23,G55C A65G,0.06
24,G8C U81C,1.08

row,Variant,self-cleavage
1,U62C C123G,0.07
2,U62C C123U,0.01
3,U12C C146A,1.45
4,G21A U81A,1.8
5,A30C C131G,2.01
6,C51U A129U,1.63
7,G49U A94U,0.32
8,U52A A67U,0.05
9,A59G G89A,0.01
10,C123A A129U,1.31
11,U130C A136G,1.66
12,A30G C84G,0.17
13,C120A A121U,0.93
14,U23A U104C,0.84
15,U5C A77U,0.73
16,G36C U104C,1.87
17,U87G U130C,0.41
18,U96A U132A,0.08
19,C99U C133U,0.34
20,A79U C101A,1.92
21,A42G U112C,1.54
22,A79G U81A,2.28
23,U9C A92G,0.1
24,C66U U73A,0.03

row,Variant,self-cleavage
1,A57G C120A,0.93
2,U45C A142G,1.26
3,A121G G139A,1.06
4,G93U A121C,0.03
5,U52A A141C,1.48
6,U39C A142G,1.18
7,A59G U81A,0.1
8,U20C C37U,1.33
9,G88A C146U,0.07
10,A50U A77U,0.83
11,A30U U102C,0.75
12,A117G G144A,0.73
13,A31U A79G,0.55
14,A67C A140G,0.06
15,A59U A142G,1.08
16,U39A U52C,1.72
17,U15C U73A,1.68
18,A79G U104C,1.22
19,U87C G106A,0.21
20,U14G A129U,0.89
21,U81A U91A,0.93
22,G41U C145U,0.75
23,U109G A138U,1.07
24,G36U U73A,0.46

row,Variant,self-cleavage
1,U73A A77G,2.29
2,C98G G125A,0.05
3,A2U U15C,1.19
4,A142G C145U,1.11
5,G8U U115C,1.93
6,G72U U91C,0.49
7,U9C G86A,0.16
8,U45G C113U,0.88
9,U52A G127A,1.63
10,U39A C120U,1.56
11,U62C A64C,0
12,A64U A78G,0.27
13,A69G U87A,0.03
14,A79G C98G,0.12
15,G93U U102C,0.04
16,U14A A65G,0.06
17,A77U G125A,1.33
18,U81C U119C,1.84
19,C28U A50G,1.09
20,G41C U134C,1.76
21,U14C G60A,0.11
22,G40A A64C,0.18
23,G40A G53A,0.74
24,A67G U100A,0.06

row,Variant,self-cleavage
1,A22G A94G,0.56
2,G35U C110U,1.51
3,G4A U87G,0.07
4,U9C C98U,0.59
5,G114A A142U,1.56
6,G21A A67G,0.48
7,U5G A107G,0.86
8,A50C U91C,0.48
9,U13A C133U,0.67
10,U91C G122A,0.29
11,U9C U47C,1.45
12,A69G G97U,0.07
13,G34U A138G,1.56
14,U91A A117U,0.6
15,U26C C116U,1.48
16,A2U U12C,0.64
17,U62A A117C,0.05
18,U14C A30G,1.08
19,G10A U100C,0.49
20,U29A U47C,0
21,G8A A30G,0.67
22,U13C G126A,1.22
23,U15C G53A,1.34
24,G4C U115C,2.15

row,Variant,self-cleavage
1,G55C U87C,0.37
2,U26A U91A,0.44
3,A30G G106U,0.83
4,G49A G72A,1.45
5,U12A A64U,0.79
6,G32A A42G,1.27
7,G33U A69G,0.69
8,C56U G74A,0.09
9,A22U G122A,1.19
10,G34U U134C,1.57
11,G40A A140G,1.12
12,C3A U45G,0.45
13,C68U A92G,0.05
14,U1A U104C,1.51
15,A6G U100G,0.95
16,U15C C131U,2.51
17,G7A U20A,0.96
18,C101U U102G,0.3
19,U46G C103A,1.25
20,G83U U119A,0.65
21,A65G A129G,0.03
22,U46G,1.25
23,G82A A141G,1.8
24,U9C U73A,1.58

row,Variant,self-cleavage
1,A42G U45C,1.2
2,G83A U134C,1.13
3,U15G U96C,0
4,U104C G135A,1.52
5,C113G U143C,1.36
6,U104C U115A,0.22
7,G49A,1
8,A43U U104C,1.67
9,C103U A117G,1.41
10,U85A U109C,0.07
11,G82A A117G,1.77
12,A78G A94U,0.19
13,U5A U119A,1.05
14,C37A U100C,1.56
15,U12A U91A,0.82
16,U12C A117G,1.84
17,G70C U108C,0.29
18,A31U U134A,0.9
19,C68U A138G,0.17
20,G33U A50U,1.14
21,U9A U119C,1.04
22,U12C G35U,1.53
23,U9C U100C,1.51
